According to patent publication US8062638 (Chugai, dated 2011):
Substitutions are numbered along the chain they refer to.

B1: humanized H chain version b / chimeric L chain antibody (antibody, V domains shown)
VH: QVQLLESGAVLARPGTSVKISCKASGFNIKDYYMHWVKQRPGQGLEWIGGNDPANGHSMYDPKFQGRVTITADTSTNTAYMELSSLRSEDTAIYYCARDSGYAMDYWGQGTLVTVSS
VL: DIKMTQSPSSMYASLGERVTITCKASQDIKSFLSWYQQKPWKSPKTLIYYATSLADGVPSRFSGSGSGQDYSLTINNLESDDTATYYCLQHGESPYTFGGGTKLEIK
notes: Expressed from N5KG4P (human IgG4-type)
B2: humanized H chain version c / chimeric L chain antibody (antibody, V domains shown)
VH: QVQLLESGAVLARPGTSVKISCKASGFNIKDYYMHWVKQRPGQGLEWIGGNDPANGHSMYDPKFQGRVTMLVDTSKNQFSLRLSSVTAADTAVYYCARDSGYAMDYWGQGTLVTVSS
VL: B1 VL
notes: as for B1
B3: H chain humanized version b / L chain humanized version b antibody (antibody, V domains shown)
VH: B1 VH
VL: DIQMTQSPSSLSASVGDRVTITCKASQDIKSFLSWYQQKPGKAPKLLIYYATSLADGVPSRFSGSGSGTDYTLTISSLQPEDFATYYCLQHGESPYTFGGGTKVEIK
notes: also called b-b; humanized antibody version b-b
B4: humanized H chain version a / chimeric L chain antibody (antibody, V domains shown)
VH: QVQLLESGAVLARPGTSVKISCKASGFNIKDYYMHWVKQRPGQGLEWIGGNDPANGHSMYDPKFQGRAKLTAATSASIAYLEFSSLTNEDSAVYYCARDSGYAMDYWGQGTLVTVSS
VL: B1 VL
notes: as for B1
B5: humanized H chain version d / humanized L chain version b antibody (antibody, V domains shown)
VH: B1 VH with T74E, N77S, T91S, I93V, Y95F
VL: B3 VL
notes: Expressed from N5KG4P (human IgG4-type); also called d-b
B6: humanized H chain version d / chimeric L chain antibody (antibody, V domains shown)
VH: B1 VH with T74E, N77S, T91S, I93V, Y95F
VL: B1 VL
notes: as for B1
B7: humanized H chain version b / humanized L chain version b2 antibody (antibody, V domains shown)
VH: B1 VH
VL: B3 VL with G41E, L46S
notes: Expressed from N5KG4P (human IgG4-type); also called b-b2
B8: humanized H chain version j / humanized L chain version b antibody (antibody, V domains shown)
VH: B1 VH with I70F, T76A, S84R, E89A, I93V
VL: B3 VL
notes: Expressed from N5KG4P (human IgG4-type); also called j-b
B9: humanized H chain version d3 / humanized L chain version b antibody (antibody, V domains shown)
VH: B1 VH with K38R, R40A, T74E, N77S, T91S, I93V, Y95F
VL: B3 VL
notes: Expressed from N5KG4P (human IgG4-type); also called d3-b
B10: humanized H chain version b / humanized L chain version a antibody (antibody, V domains shown)
VH: B1 VH
VL: B3 VL with Y71F
notes: Expressed from N5KG4P (human IgG4-type); also called b-a
B11: humanized H chain version b3 / humanized L chain version b antibody (antibody, V domains shown)
VH: B1 VH with K38R, R40A
VL: B3 VL
notes: Expressed from N5KG4P (human IgG4-type); also called b3-b
B12: humanized H chain version i / humanized L chain version b1 antibody (antibody, V domains shown)
VH: B1 VH with N77S, A79V, Y80F, I93V
VL: B3 VL with Y36F, A43S, L46T
notes: Expressed from N5KG4P (human IgG4-type); also called i-b1
B13: humanized H chain version i / chimeric L chain antibody (antibody, V domains shown)
VH: B1 VH with N77S, A79V, Y80F, I93V
VL: B1 VL
notes: as for B1
B14: humanized H chain version g / humanized L chain version b antibody (antibody, V domains shown)
VH: B1 VH with R67K, V68A, I70L, T74E, T76S, N77S, E82Q, T91S, I93V, Y95S
VL: B3 VL
notes: Expressed from N5KG4P (human IgG4-type); also called g-b
B15: humanized H chain version b / humanized L chain version c antibody (antibody, V domains shown)
VH: B1 VH
VL: B3 VL with F83I
notes: Human IgG4-type (N5KG4P series); also called b-c
B16: humanized H chain version j / chimeric L chain antibody (antibody, V domains shown)
VH: B1 VH with I70F, T76A, S84R, E89A, I93V
VL: B1 VL
notes: as for B1
B17: H chain humanized version i / L chain humanized version b antibody (antibody, V domains shown)
VH: B1 VH with N77S, A79V, Y80F, I93V
VL: B3 VL
notes: also called humanized antibody version i-b
B18: H chain humanized version i / L chain humanized version b2 antibody (antibody, V domains shown)
VH: B1 VH with N77S, A79V, Y80F, I93V
VL: B3 VL with G41E, L46S
notes: also called i-b2; humanized anti-human TF antibody version i-b2
B19: humanized H chain version e / chimeric L chain antibody (antibody, V domains shown)
VH: B1 VH with T69S, T74E, N77K, T78I, S84N, I93V, Y95F
VL: B1 VL
notes: as for B1
B20: chimeric H chain / humanized L chain version b antibody (antibody, V domains shown)
VH: EVQLQQSGTNLVRPGALVKLSCKGSGFNIKDYYMHWVKQRPEQGLEWIGGNDPANGHSMYDPKFQGKASITADTSSNTAYLQLSSLTSEDTAVYFCARDSGYAMDYWGQGTSVTVSS
VL: B3 VL
notes: Expressed from N5KG4P (human IgG4-type); also called ch-b
B21: humanized H chain version a / humanized L chain version a antibody (antibody, V domains shown)
VH: B4 VH
VL: B3 VL with Y71F
notes: as for B1
B22: chimeric H chain / humanized L chain version a antibody (antibody, V domains shown)
VH: B20 VH
VL: B3 VL with Y71F
notes: as for B1
B23: chimeric H chain / humanized L chain version b1 antibody (antibody, V domains shown)
VH: B20 VH
VL: B3 VL with Y36F, A43S, L46T
notes: Expressed from N5KG4P (human IgG4-type); also called ch-b1
B24: chimeric H chain / humanized L chain version b2 antibody (antibody, V domains shown)
VH: B20 VH
VL: B3 VL with G41E, L46S
notes: Expressed from N5KG4P (human IgG4-type); also called ch-b2
B25: chimeric H chain / humanized L chain version c antibody (antibody, V domains shown)
VH: B20 VH
VL: B3 VL with F83I
notes: as for B1
B26: chimeric ATR-5 antibody (H chain chimeric/L chain chimeric) (antibody, V domains shown)
VH: B20 VH
VL: B1 VL
notes: Mouse ATR-5 V regions on human C regions; Both IgG1-type (N5KG1(V)) and IgG4-type (N5KG4P) vectors were made; also called ch-ch; chimeric antibody

Target: T1, human tissue factor (TF) on cells (human, UniProt P13726 33-295)
T1 construct: also called human TF; the antigen
Experiment: cell ELISA on fixed J82 cells expressing TF

Binding result, binds:
B1
B2
B3
B4
B5
B6
B7
B8
B9
B10
B11
B12
B13
B14
B15
B16
B17
B18
B19
B20
B21
B22
B23
B24
B25

Target: T1, human tissue factor (TF) on cells
Experiment: cell ELISA on fixed J82 cells expressing TF; chimeric antibody is the reference

Binding result, binds:
B26
